{"source": "patent US20240270821A1", "about": "“GIP/GLP1/GCG TRI-RECEPTOR AGONISTS AND USES THEREOF” (priority 2023, published 2024)", "binders": {"B1": {"name": "Example 444 (peptide)", "chain": "YXQGTXTSDXXIXLDXIAQXXFIEXLIKGGPSSGEPPPE", "modifications": "not fully specified; synthetic construct; SITE 2: note = 2-Aminoisobutyric Acid; SITE 6: note = alpha-methyl-2-fluoro-L-phenylalanine; SITE 10: note = 3-(4-Pyridyl)-L-alanine; SITE 11: note = alpha-methyl-L-serine; SITE 13: note = alpha-methyl-leucine; SITE 16: note = L-ornithine; SITE 20: note = 2-Aminoisobutyric Acid;"}, "B2": {"name": "Example 447 (peptide)", "chain": "B1 chain with I12E, I17K, K28E", "modifications": "synthetic construct; SITE 2: note = 2-Aminoisobutyric Acid; SITE 6: note = alpha-methyl-2-fluoro-L-phenylalanine; SITE 10: note = 3-(4-Pyridyl)-L-alanine; SITE 11: note = alpha-methyl-L-serine; SITE 13: note = alpha-methyl-leucine; SITE 16: note = L-ornithine; SITE 17: note = Lysine is chemically mo"}, "B3": {"name": "Example 457 (peptide)", "chain": "B1 chain with I17K, X21T, K28E", "modifications": "synthetic construct; SITE 2: note = 2-Aminoisobutyric Acid; SITE 6: note = alpha-methyl-2-fluoro-L-phenylalanine; SITE 10: note = 3-(4-Pyridyl)-L-alanine; SITE 11: note = alpha-methyl-L-serine; SITE 13: note = alpha-methyl-leucine; SITE 16: note = L-ornithine; SITE 17: note = Lysine is chemically mo"}, "B4": {"name": "Example 450 (peptide)", "chain": "B1 chain with I17K, X21N, I27Q, K28E", "modifications": "synthetic construct; SITE 2: note = 2-Aminoisobutyric Acid; SITE 6: note = alpha-methyl-2-fluoro-L-phenylalanine; SITE 10: note = 3-(4-Pyridyl)-L-alanine; SITE 11: note = alpha-methyl-L-serine; SITE 13: note = alpha-methyl-leucine; SITE 16: note = L-ornithine; SITE 17: note = Lysine is chemically mo"}, "B5": {"name": "Example 460 (peptide)", "chain": "B1 chain with I17K, X25Y, I27L, K28E", "modifications": "synthetic construct; SITE 2: note = 2-Aminoisobutyric Acid; SITE 6: note = alpha-methyl-2-fluoro-L-phenylalanine; SITE 10: note = 3-(4-Pyridyl)-L-alanine; SITE 11: note = alpha-methyl-L-serine; SITE 13: note = alpha-methyl-leucine; SITE 16: note = L-ornithine; SITE 17: note = Lysine is chemically mo"}, "B6": {"name": "Example 449 (peptide)", "chain": "B1 chain with I17K, X21N, X25Y, K28E", "modifications": "synthetic construct; SITE 2: note = 2-Aminoisobutyric Acid; SITE 6: note = alpha-methyl-2-fluoro-L-phenylalanine; SITE 10: note = 3-(4-Pyridyl)-L-alanine; SITE 11: note = alpha-methyl-L-serine; SITE 13: note = alpha-methyl-leucine; SITE 16: note = L-ornithine; SITE 17: note = Lysine is chemically mo"}, "B7": {"name": "Example 453 (peptide)", "chain": "B1 chain with I17K, K28E", "modifications": "synthetic construct; SITE 2: note = 2-Aminoisobutyric Acid; SITE 6: note = alpha-methyl-2-fluoro-L-phenylalanine; SITE 10: note = 3-(4-Pyridyl)-L-alanine; SITE 11: note = alpha-methyl-L-serine; SITE 13: note = alpha-methyl-leucine; SITE 16: note = L-ornithine; SITE 17: note = Lysine is chemically mo"}, "B8": {"name": "Example 471 (peptide)", "chain": "YXQGTXTSDYSILLDKKAQXAFIEYLEEGGPSSGAPPPEEG", "modifications": "synthetic construct; SITE 2: note = 2-Aminoisobutyric Acid; SITE 6: note = alpha-methyl-2-fluoro-L-phenylalanine; SITE 17: note = Lysine is chemically modified through conjugation of the epsilon-amino group of the Lysine side chain with (gamma-Glu)2-CO-(CH2)16-CO2H; SITE 20: note = 2-Aminoisobutyric"}, "B9": {"name": "Example 467 (peptide)", "chain": "YXQGTXTSDYXELLDKKAQXAFIEYLEEGGPSSGAPPPE", "modifications": "synthetic construct; SITE 2: note = 2-Aminoisobutyric Acid; SITE 6: note = alpha-methyl-2-fluoro-L-phenylalanine; SITE 11: note = alpha-methyl-L-serine; SITE 17: note = Lysine is chemically modified through conjugation of the epsilon-amino group of the Lysine side chain with (2-[2-(2-Amino-ethoxy)-e)"}, "B10": {"name": "Example 468 (peptide)", "chain": "B9 chain with E12I", "modifications": "synthetic construct; SITE 2: note = 2-Aminoisobutyric Acid; SITE 6: note = alpha-methyl-2-fluoro-L-phenylalanine; SITE 11: note = alpha-methyl-L-serine; SITE 17: note = Lysine is chemically modified through conjugation of the epsilon-amino group of the Lysine side chain with (2-[2-(2-Amino-ethoxy)-e)"}, "B11": {"name": "Example 462 (peptide)", "chain": "YXQGTXTSDXXIXLDXKAQXXFIEXLIEGGPSSGEPPPEEG", "modifications": "synthetic construct; SITE 2: note = 2-Aminoisobutyric Acid; SITE 6: note = alpha-methyl-2-fluoro-L-phenylalanine; SITE 10: note = 3-(4-Pyridyl)-L-alanine; SITE 11: note = alpha-methyl-L-serine; SITE 13: note = alpha-methyl-leucine; SITE 16: note = L-ornithine; SITE 17: note = Lysine is chemically mo"}, "B12": {"name": "Example 475 (peptide)", "chain": "B11 chain with X11S", "modifications": "synthetic construct; SITE 2: note = 2-Aminoisobutyric Acid; SITE 6: note = alpha-methyl-2-fluoro-L-phenylalanine; SITE 10: note = 3-(4-Pyridyl)-L-alanine; SITE 13: note = alpha-methyl-leucine; SITE 16: note = L-ornithine; SITE 17: note = Lysine is chemically modified through conjugation of the epsil"}}, "note": "Numbering of substitutions follows the chain as printed.", "data": [{"target": "hGLP-1R (Homo sapiens, UniProt P43220)", "sequence (P43220 24-463)": "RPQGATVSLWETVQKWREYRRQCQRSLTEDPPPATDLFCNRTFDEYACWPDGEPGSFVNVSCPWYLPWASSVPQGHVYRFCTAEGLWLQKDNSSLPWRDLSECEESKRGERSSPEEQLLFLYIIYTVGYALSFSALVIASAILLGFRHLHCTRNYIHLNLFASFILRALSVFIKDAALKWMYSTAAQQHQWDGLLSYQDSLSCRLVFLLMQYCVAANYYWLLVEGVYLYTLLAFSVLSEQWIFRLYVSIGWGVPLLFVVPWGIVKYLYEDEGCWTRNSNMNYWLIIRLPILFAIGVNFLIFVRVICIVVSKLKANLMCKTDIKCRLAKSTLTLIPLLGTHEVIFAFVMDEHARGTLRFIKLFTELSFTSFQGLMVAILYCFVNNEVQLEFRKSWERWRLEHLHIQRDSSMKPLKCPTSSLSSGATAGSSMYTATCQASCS", "experiment": "cell-based or functional assay", "units": {"Relative cAMP EC50": "nM", "cAMP Rel EC50, nM (1% HSA)": "nM", "Relative cAMP EC50, nM (0.1% casein)": "nM", "cAMP Rel EC50 (receptor-expressing HEK-293 cells, 1% HSA)": "nM"}, "values": [{"binder": "B1", "Relative cAMP EC50": 0.352, "cAMP Rel EC50, nM (1% HSA)": 54.6}, {"binder": "B2", "Relative cAMP EC50, nM (0.1% casein)": 0.214, "cAMP Rel EC50 (receptor-expressing HEK-293 cells, 1% HSA)": 11.3}, {"binder": "B3", "Relative cAMP EC50, nM (0.1% casein)": 0.226, "cAMP Rel EC50 (receptor-expressing HEK-293 cells, 1% HSA)": 11.7}, {"binder": "B4", "Relative cAMP EC50, nM (0.1% casein)": 0.43, "cAMP Rel EC50 (receptor-expressing HEK-293 cells, 1% HSA)": 18.4}, {"binder": "B5", "Relative cAMP EC50, nM (0.1% casein)": 0.636, "cAMP Rel EC50 (receptor-expressing HEK-293 cells, 1% HSA)": 31.1}, {"binder": "B6", "Relative cAMP EC50, nM (0.1% casein)": 0.568, "cAMP Rel EC50 (receptor-expressing HEK-293 cells, 1% HSA)": 18.9}, {"binder": "B7", "Relative cAMP EC50, nM (0.1% casein)": 0.374, "cAMP Rel EC50 (receptor-expressing HEK-293 cells, 1% HSA)": 20.6}, {"binder": "B8", "Relative cAMP EC50, nM (0.1% casein)": 0.317, "cAMP Rel EC50 (receptor-expressing HEK-293 cells, 1% HSA)": 37.9}, {"binder": "B9", "Relative cAMP EC50, nM (0.1% casein)": 0.358, "cAMP Rel EC50 (receptor-expressing HEK-293 cells, 1% HSA)": 36.4}, {"binder": "B10", "Relative cAMP EC50, nM (0.1% casein)": 0.466, "cAMP Rel EC50 (receptor-expressing HEK-293 cells, 1% HSA)": 30.7}, {"binder": "B11", "Relative cAMP EC50, nM (0.1% casein)": 0.204, "cAMP Rel EC50 (receptor-expressing HEK-293 cells, 1% HSA)": 12.9}, {"binder": "B12", "Relative cAMP EC50, nM (0.1% casein)": 0.254, "cAMP Rel EC50 (receptor-expressing HEK-293 cells, 1% HSA)": 18.6}]}, {"target": "T1, human GIP receptor (human) (UniProt P48546)", "T1 sequence (looked up)": "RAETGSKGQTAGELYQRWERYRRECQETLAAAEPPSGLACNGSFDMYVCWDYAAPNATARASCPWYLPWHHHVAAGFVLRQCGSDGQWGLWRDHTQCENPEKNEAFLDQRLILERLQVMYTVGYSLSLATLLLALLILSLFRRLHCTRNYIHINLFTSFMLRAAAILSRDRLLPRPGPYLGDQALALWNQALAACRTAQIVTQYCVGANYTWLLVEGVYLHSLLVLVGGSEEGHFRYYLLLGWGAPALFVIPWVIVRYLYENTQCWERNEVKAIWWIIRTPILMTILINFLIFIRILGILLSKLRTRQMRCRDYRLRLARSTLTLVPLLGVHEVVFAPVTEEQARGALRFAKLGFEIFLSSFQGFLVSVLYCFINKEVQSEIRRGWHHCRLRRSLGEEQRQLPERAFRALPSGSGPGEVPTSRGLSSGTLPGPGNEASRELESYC", "experiment": "cell-based or functional assay", "units": {"Relative cAMP EC50": "nM", "cAMP Rel EC50, nM (1% HSA)": "nM", "Relative cAMP EC50, nM (0.1% casein)": "nM", "cAMP Rel EC50 (receptor-expressing HEK-293 cells, 1% HSA)": "nM"}, "values": [{"binder": "B1", "Relative cAMP EC50": 0.0106, "cAMP Rel EC50, nM (1% HSA)": 1.74}, {"binder": "B2", "Relative cAMP EC50, nM (0.1% casein)": 0.0177, "cAMP Rel EC50 (receptor-expressing HEK-293 cells, 1% HSA)": 1.81}, {"binder": "B3", "Relative cAMP EC50, nM (0.1% casein)": 0.00918, "cAMP Rel EC50 (receptor-expressing HEK-293 cells, 1% HSA)": 0.881}, {"binder": "B4", "Relative cAMP EC50, nM (0.1% casein)": 0.0448, "cAMP Rel EC50 (receptor-expressing HEK-293 cells, 1% HSA)": 3.75}, {"binder": "B5", "Relative cAMP EC50, nM (0.1% casein)": 0.0624, "cAMP Rel EC50 (receptor-expressing HEK-293 cells, 1% HSA)": 8.93}, {"binder": "B6", "Relative cAMP EC50, nM (0.1% casein)": 0.0205, "cAMP Rel EC50 (receptor-expressing HEK-293 cells, 1% HSA)": 1.66}, {"binder": "B7", "Relative cAMP EC50, nM (0.1% casein)": 0.0184, "cAMP Rel EC50 (receptor-expressing HEK-293 cells, 1% HSA)": 1.95}, {"binder": "B8", "Relative cAMP EC50, nM (0.1% casein)": 0.0296, "cAMP Rel EC50 (receptor-expressing HEK-293 cells, 1% HSA)": 5.45}, {"binder": "B9", "Relative cAMP EC50, nM (0.1% casein)": 0.0855, "cAMP Rel EC50 (receptor-expressing HEK-293 cells, 1% HSA)": 10.7}, {"binder": "B10", "Relative cAMP EC50, nM (0.1% casein)": 0.0222, "cAMP Rel EC50 (receptor-expressing HEK-293 cells, 1% HSA)": 4.76}, {"binder": "B11", "Relative cAMP EC50, nM (0.1% casein)": 0.0148, "cAMP Rel EC50 (receptor-expressing HEK-293 cells, 1% HSA)": 1.62}, {"binder": "B12", "Relative cAMP EC50, nM (0.1% casein)": 0.0173, "cAMP Rel EC50 (receptor-expressing HEK-293 cells, 1% HSA)": 1.85}]}, {"target": "human glucagon receptor (human) (UniProt P47871)", "sequence (P47871 26-477)": "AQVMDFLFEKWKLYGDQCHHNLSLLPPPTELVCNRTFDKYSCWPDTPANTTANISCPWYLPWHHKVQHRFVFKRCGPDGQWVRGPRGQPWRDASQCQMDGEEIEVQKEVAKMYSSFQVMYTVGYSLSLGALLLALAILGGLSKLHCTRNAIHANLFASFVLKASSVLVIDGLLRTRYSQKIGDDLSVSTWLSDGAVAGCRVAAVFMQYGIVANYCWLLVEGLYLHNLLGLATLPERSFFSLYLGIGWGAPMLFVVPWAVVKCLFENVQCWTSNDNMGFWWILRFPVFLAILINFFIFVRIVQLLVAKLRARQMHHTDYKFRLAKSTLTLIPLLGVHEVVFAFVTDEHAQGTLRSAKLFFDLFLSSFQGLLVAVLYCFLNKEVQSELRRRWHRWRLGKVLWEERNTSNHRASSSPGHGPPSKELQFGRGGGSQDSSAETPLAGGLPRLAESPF", "experiment": "cell-based or functional assay", "units": {"Relative cAMP EC50": "nM", "cAMP Rel EC50, nM (1% HSA)": "nM", "Relative cAMP EC50, nM (0.1% casein)": "nM", "cAMP Rel EC50 (receptor-expressing HEK-293 cells, 1% HSA)": "nM"}, "values": [{"binder": "B1", "Relative cAMP EC50": 6.49, "cAMP Rel EC50, nM (1% HSA)": 1280}, {"binder": "B2", "Relative cAMP EC50, nM (0.1% casein)": 9.71, "cAMP Rel EC50 (receptor-expressing HEK-293 cells, 1% HSA)": 1090}, {"binder": "B3", "Relative cAMP EC50, nM (0.1% casein)": 2.86, "cAMP Rel EC50 (receptor-expressing HEK-293 cells, 1% HSA)": 333}, {"binder": "B4", "Relative cAMP EC50, nM (0.1% casein)": 4.84, "cAMP Rel EC50 (receptor-expressing HEK-293 cells, 1% HSA)": 553}, {"binder": "B5", "Relative cAMP EC50, nM (0.1% casein)": 1.89, "cAMP Rel EC50 (receptor-expressing HEK-293 cells, 1% HSA)": 142}, {"binder": "B6", "Relative cAMP EC50, nM (0.1% casein)": 11.5, "cAMP Rel EC50 (receptor-expressing HEK-293 cells, 1% HSA)": 424}, {"binder": "B7", "Relative cAMP EC50, nM (0.1% casein)": 7.37, "cAMP Rel EC50 (receptor-expressing HEK-293 cells, 1% HSA)": 261}, {"binder": "B8", "Relative cAMP EC50, nM (0.1% casein)": 2.19, "cAMP Rel EC50 (receptor-expressing HEK-293 cells, 1% HSA)": 181}, {"binder": "B9", "Relative cAMP EC50, nM (0.1% casein)": 9.34, "cAMP Rel EC50 (receptor-expressing HEK-293 cells, 1% HSA)": 850}, {"binder": "B10", "Relative cAMP EC50, nM (0.1% casein)": 1.95, "cAMP Rel EC50 (receptor-expressing HEK-293 cells, 1% HSA)": 195}, {"binder": "B11", "Relative cAMP EC50, nM (0.1% casein)": 1.69, "cAMP Rel EC50 (receptor-expressing HEK-293 cells, 1% HSA)": 183}, {"binder": "B12", "Relative cAMP EC50, nM (0.1% casein)": 2.24, "cAMP Rel EC50 (receptor-expressing HEK-293 cells, 1% HSA)": 254}]}]}
